Data on 16 molecules can be found in US20230279123A1 (REGENECORE BIOTECH, published 2023).

In assay [1] the target is T1, IL-5 (human, UniProt P05113 20-134). In words: cell-based or functional assay.
In assay [2] the target is T1, IL-5. The experiment in a line: competition ELISA: IL-5R coated, biotin-IL-5 at EC80 mixed with antibody dilutions, OD450. The procedure: (§1) (3) A biotin-conjugated ligand protein (IL-4 or IL-5) was diluted to 2 times the EC80 concentration, and the antibody was diluted to 2 times the initial concentration, and 5-fold gradient dilution was carried out. The ligand protein, and the diluted antibody (dupilumab, 4E9V10-2B3V2, 4E9-V0 or 2B3 (SEQ ID NO. 25)) and hIgG respectively, were transferred at 1:1 into a new dispensing plate and mixed well.
(§2) (7) A stopping solution was added, and the values of samples in different wells were immediately read at the wavelength of 450 nm with a microplate reader and recorded as OD450. EC50 was calculated by plotting. 4E9-V0, non-humanized anti-[…] single domain antibody 2B3, dupilumab, reslizumab, and hIgG were used as controls, and the results are shown in Tables 6 and 7 and FIGS. 5 and 6, respectively.

Assay [3] has as its target T2, IL-4Rα (on TF-1 cells) (UniProt P24394 26-825, limits assumed). In words: cell-based or functional assay.
Assay [4] addresses T2, IL-4Rα (on TF-1 cells). The experiment in a line: cell-based or functional assay. This is another data set of the same source.
Assay [5] has as its target T3, IL-4Rα (receptor protein / antigen) (UniProt P24394 26-232, limits assumed).
T3 construct: also called IL-4 receptor subunit α
In words: BLI (Octet 96), antibody loaded on sensor, antigen in solution. The procedure:
(§3) Assay steps: Octet 96 and Data Acquisition software in the supporting computer were run. The bottom and sides of an acquisition probe were cleaned using a lens tissue with an appropriate amount of 75% ethanol, and the instrument was preheated for 15 min or more. Sensor pre-wetting: before the assay, the Sensor was soaked in the SD buffer for 10 min or more for later use. Then, the machine procedure was set according to: baseline→antibody→baseline→antigen binding→antigen dissociation→sensor regeneration for assay operation.
(Biolayer interferometry detects binding as a change in optical thickness at a sensor tip.)

Assay [6] has as its target T2, IL-4Rα (on TF-1 cells). In words: cell-based or functional assay. This is another data set of the same source.
The target in assay [7] is T3, IL-4Rα (receptor protein / antigen). In words: competition ELISA: IL-4Rα coated, biotin-IL-4 at EC80 mixed with antibody dilutions, OD450. The procedure:
as §1, §2
Background: In an ELISA, binding on a coated surface is turned into a signal by an enzyme label.

The target in assay [8] is T2, IL-4Rα (on TF-1 cells). In words: cell-based or functional assay. This is another data set of the same source.
Assay [9] addresses T3, IL-4Rα (receptor protein / antigen). In words: BLI (Octet 96), antibody loaded on sensor, antigen 200 nM and 2-fold dilutions in solution. On the procedure: as §3

T1 sequence (P05113 20-134 limits assumed): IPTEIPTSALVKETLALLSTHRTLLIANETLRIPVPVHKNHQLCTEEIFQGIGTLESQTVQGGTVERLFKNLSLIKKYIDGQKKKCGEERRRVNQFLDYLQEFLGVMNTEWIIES

B1: non-humanized anti-IL-5 single domain antibody 2B3 (VHH)
VHH: QVQLVESGGGSVQAGGSLRLSCAASGNTFSFSTYCMGWFRQSPGKEREGSLATIYDGSTAYAGSVKGRFTISVDNAKNILYLQMNNLKPEDTAMYYCAAAKYCMFWSDPSYWGQGTQVTVSS
By EC50 is commonly meant the midpoint of the concentration-response curve. Higher therefore signals lower potency in that assay. Turning to B1, the “EC50 of neutralizing IL-5-induced TF-1 cell proliferation” value with IL-5 [1] was 0.000336 µM. In the assay with IL-5 [2], this molecule gave an EC50 of 0.00691 µM.

B2: humanized anti-IL-4Rα single domain antibody 4E9-V11 (VHH)
VHH: QVQLVESGGGLVQPGGSLRLSCAASGDFYCMAWFRQAPGKEREAVAIRSGGRSTYYADSVKGRFTISRDNSKNTLYLQMNSLKAEDTAVYYCAVGVDGNCRNYWGQGTLVTVSS
In the case of B2, the “EC50 of neutralizing IL-4-induced TF-1 proliferation” value with IL-4Rα (on TF-1 cells) [3] is 1880 µM.

B3: humanized anti-IL-4Rα single domain antibody 4E9-V7 (VHH)
VHH: QVQLVESGGGLVQPGGSLRLSCAASGDFYCMAWFRQAPGKEREAVAIRSGGRSTYLADSVKGRFTISRDNSKNTLYLQMNSLKAEDTAVYYCAVGVDGNCRNYWGQGTLVTVSS
With B3, the “EC50 of neutralizing IL-4-induced TF-1 proliferation” value with IL-4Rα (on TF-1 cells) [3] is 0.185 µM.

B4: humanized anti-IL-4Rα single domain antibody 4E9-V6 (VHH)
VHH: QVQLVESGGGLVQPGGSLRLSCAASGDFYCMAWFRQAPGKEREAVATIRSGGRSTYYADSVKGRFTISRDNSKNTLYLQMNSLKAEDTAVYYCAVGVDGNCRNYWGQGTLVTVSS
A word on the Kd: it is the free concentration of one partner at which half of the binding sites on the other are occupied at equilibrium, for simple one-to-one binding. Broadly, the koff is the rate constant with which the complex falls apart. By kon is commonly meant a measure of how fast the partners come together. On to B4, for which the “EC50 of neutralizing IL-13-induced TF-1 proliferation” value with IL-4Rα (on TF-1 cells) [4] stood at 0.000759 µM. In addition, the “EC50 of neutralizing IL-4-induced TF-1 proliferation” value with IL-4Rα (on TF-1 cells) [3] is 0.000707 µM. In assay [5], this molecule gave a Kd of 0.00305 µM, a koff of 0.000506 s⁻¹ and a kon of 166000 M⁻¹ s⁻¹.

B5: humanized anti-IL-4Rα single domain antibody 4E9-V9 (VHH)
VHH: QVQLVESGGGLVQPGGSLRLSCAASGDFYCMAWFRQAPGKERERVATIRSGGRSTYYADSVKGRFTISRDNSKNTLYLQMNSLKAEDTAVYYCAVGVDGNCRNYWGQGTLVTVSS
As to B5, in the assay with IL-4Rα (on TF-1 cells) [3], the “EC50 of neutralizing IL-4-induced TF-1 proliferation” value is 0.000752 µM.

B6: humanized anti-IL-4Rα single domain antibody 4E9-V8 (VHH)
VHH: QVQLVESGGGLVQPGGSLRLSCAASGDFYCMAWFRQAPGKERERVAKIRSGGRSTYLADSVKGRFTISRDNSKNTLYLQMNSLKAEDTAVYYCAVGVDGNCRNYWGQGTLVTVSS
In the case of B6, in the assay with IL-4Rα (on TF-1 cells) [4], the “EC50 of neutralizing IL-13-induced TF-1 proliferation” value amounted to 0.00311 µM. In addition, the “EC50 of neutralizing IL-4-induced TF-1 proliferation” value with IL-4Rα (on TF-1 cells) [3] was found to be 0.00277 µM.

B7: humanized anti-IL-4Rα single domain antibody 4E9-V3 (VHH)
VHH: QVQLVESGGGLVQPGGSLRLSCAASGDFYCLGWFRQAPGQEREAVAAIRSGGRSTYYADSVKGRFTISRDNSKNTLYLQMNSLKAEDTAVYYCAVGVDGNCRNYWGQGTLVTVSS
Turning to B7, in the assay with IL-4Rα (on TF-1 cells) [3], the “EC50 of neutralizing IL-4-induced TF-1 proliferation” value worked out at 0.0138 µM.

B8: humanized anti-IL-4Rα single domain antibody 4E9-V14 (VHH)
VHH: QVQLVESGGGLVQPGGSLRLSCAASGDFYCMAWFRQAPGKEREAVATIRSGGRSTYYADSVKGRFTISRDNSKNTLYLQMNSLRAEDTAVYYCAVGVDGNCRNYWGQGTLVTVSS
Take B8: in the assay with IL-4Rα (on TF-1 cells) [3], the “EC50 of neutralizing IL-4-induced TF-1 proliferation” value worked out at 18600 µM.

B9: humanized anti-IL-4Rα single domain antibody 4E9-V2 (VHH)
VHH: QVQLVESGGGLVQPGGSLRLSCAASGDFYCLGWFRQAPGQEREAVAAIRSGGRSTYYADSVKGRFTISRDNSKNTLYLQMNSLRAEDTAVYYCAVGVDGNCRNYWGQGTLVTVSS
For B9, the “EC50 of neutralizing IL-4-induced TF-1 proliferation” value with IL-4Rα (on TF-1 cells) [3] was determined as 0.0521 µM.

B10: humanized anti-IL-4Rα single domain antibody 4E9-V5 (VHH)
VHH: QVQLVESGGGLVQPGGSLRLSCAASGDFYCLGWFRQAPGQGLEAVAAIRSGGRSTYYADSVKGRFTISRDNSKNTLYLQMNSLRAEDTAVYYCAVGVDANCRNYWGQGTLVTVSS
Consider B10, for which the “EC50 of neutralizing IL-4-induced TF-1 proliferation” value with IL-4Rα (on TF-1 cells) [3] was found to be 0.000746 µM.

B11: humanized anti-IL-4Rα single domain antibody 4E9-V13 (VHH)
VHH: QVQLVESGGGLVQPGGSLRLSCAASGDFYCMAWFRQAPGKEREAVATIRSGGRSTYYADSVKGRFTISRDNSKNTVYLQMNSLKAEDTAVYYCAVGVDGNCRNYWGQGTLVTVSS
B11: the “EC50 of neutralizing IL-13-induced TF-1 proliferation” value with IL-4Rα (on TF-1 cells) [4] was 0.0042 µM. Also, the “EC50 of neutralizing IL-4-induced TF-1 proliferation” value with IL-4Rα (on TF-1 cells) [3] was found to be 0.00452 µM. For the same molecule, in assay [5], the Kd worked out at 0.00341 µM, the koff came to 0.000565 s⁻¹ and the kon was determined as 166000 M⁻¹ s⁻¹.

B12: anti-IL-4Rα single domain antibody 4E9 (4E9-V0) (VHH)
VHH: QVQLVESGGGSVQAGGSLRLSCAASGDFYCMAWFRQAPGKEREGVATIRSGGRSTYYADSVKGRFTISKDNAKDTLYLQMNSLKPEDTAMYYCAVGVDGNCRNYWGQGTQVTVSS
notes: also called non-humanized antibody
B12: the “EC50 of neutralizing IL-13-induced TF-1 cell proliferation” value with IL-4Rα (on TF-1 cells) [6] was 0.000229 µM. In addition, the midpoint of the response in [7], the EC50, lay at 0.00445 µM. Also, the “EC50 of neutralizing IL-4-induced TF-1 cell proliferation” value with IL-4Rα (on TF-1 cells) [8] came to 0.000281 µM.

B13: humanized anti-IL-4Rα single domain antibody 4E9-V10 (VHH)
VHH: QVQLVESGGGLVQPGGSLRLSCAASGDFYCMAWFRQAPGKEREAVAAIRSGGRSTYYADSVKGRFTISRDNSKNTLYLQMNSLKAEDTAVYYCAVGVDGNCRNYWGQGTLVTVSS
In the case of B13, the “EC50 of neutralizing IL-13-induced TF-1 proliferation” value in the assay with IL-4Rα (on TF-1 cells) [4] is 0.00018 µM. Besides, the “EC50 of neutralizing IL-4-induced TF-1 proliferation” value with IL-4Rα (on TF-1 cells) [3] amounted to 0.000271 µM. The same molecule returned a Kd in assay [9] of 0.00308 µM. In [5], this molecule returned a koff of 0.000534 s⁻¹ and a kon of 173000 M⁻¹ s⁻¹.

B14: humanized anti-IL-4Rα single domain antibody 4E9-V12 (VHH)
VHH: QVQLVESGGGLVQPGGSLRLSCAASGDFYCMAWFRQAPGKEREAVATIRSGGRSTYLADSVKGRFTISRDNSKNTLYLQMNSLKAEDTAVYYCAVGVDGNCRNYWGQGTLVTVSS
Regarding B14, the “EC50 of neutralizing IL-13-induced TF-1 proliferation” value in the assay with IL-4Rα (on TF-1 cells) [4] amounted to 0.00211 µM. In the assay with IL-4Rα (on TF-1 cells) [3], the “EC50 of neutralizing IL-4-induced TF-1 proliferation” value came to 0.00203 µM. In assay [5], this molecule returned a Kd of 0.0093 µM, a koff of 0.000268 s⁻¹ and a kon of 28800 M⁻¹ s⁻¹.

B15: reslizumab (antibody, V domains shown)
VH: EVQLVESGGGLVQPGGSLRLSCAVSGLSLTSNSVNWIRQAPGKGLEWVGLIWSNGDTDYNSAIKSRFTISRDTSKSTVYLQMNSLRAEDTAVYYCAREYYGYFDYWGQGTLVTVSS
VL: DIQMTQSPSSLSASVGDRVTITCLASEGISSYLAWYQQKPGKAPKLLIYGANSLQTGVPSRFSGSGSATDYTLTISSLQPEDFATYYCQQSYKFPNTFGQGTKVEVK
For B15, in the assay with IL-5 [1], the “EC50 of neutralizing IL-5-induced TF-1 cell proliferation” value amounted to 0.000122 µM. Besides, the response in the assay with IL-5 [2] was half-maximal at 0.00621 µM (EC50).

B16: dupilumab (antibody, V domains shown)
VH: EVQLVESGGGLEQPGGSLRLSCAGSGFTFRDYAMTWVRQAPGKGLEWVSSISGSGGNTYYADSVKGRFTISRDNSKNTLYLQMNSLRAEDTAVYYCAKDRLSITIRPRYYGLDVWGQGTTVTVSS
VL: DIVMTQSPLSLPVTPGEPASISCRSSQSLLYSIGYNYLDWYLQKSGQSPQLLIYLGSNRASGVPDRFSGSGSGTDFTLKISRVEAEDVGFYYCMQALQTPYTFGQGTKLEIKR
Take B16: in assay [7], a half-maximal response (EC50) required 0.00432 µM.
